The results in this text go back to publication PMC9278964.

pEC50: −log10 of the molar value. Where two headings read alike, the source gives them in different places.

The target of experiment [1] is biotinylated PD-L1 (Homo sapiens (assumed)) (UniProt Q9NZQ7). In words: ELISA.
For experiment [2] the target is unchanged. In words: ELISA. This is another data set of the same source.

UniProt Q9NZQ7, sequence (Q9NZQ7 19-290): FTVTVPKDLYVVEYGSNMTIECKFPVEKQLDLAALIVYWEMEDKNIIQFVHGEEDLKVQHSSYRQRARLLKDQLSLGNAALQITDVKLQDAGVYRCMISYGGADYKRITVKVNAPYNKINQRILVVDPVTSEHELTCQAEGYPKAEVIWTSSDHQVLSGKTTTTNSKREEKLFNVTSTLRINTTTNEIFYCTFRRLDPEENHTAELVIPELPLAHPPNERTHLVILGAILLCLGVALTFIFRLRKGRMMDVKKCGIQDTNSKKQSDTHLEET

Broadly, the pEC50 is the EC50 on a negative log10 scale, so that one unit is a factor of ten. A low value points to a large EC50. In the case of avelumab (antibody), the pEC50 in experiment [1] is 10.82; in experiment [2], 10.01.
